± gives the uncertainty stated by the source.

Sequences and labels used below:
B1: Zinc finger homeobox protein 4, residues 2562 to 2617; numbered along this chain, Q86UP3 (parent)
chain: RLRTTITPEQLEILYEKYLLDSNPTRKMLDHIAREVGLKKRVVQVWFQNTRARERK

In this series the parent is B1. Kind of series: abundance fitness (aPCA) (normalised: wild type 0, dead -1); higher = more abundant; growth selection in yeast, the domain comes from the species named. Particulars: Homo sapiens.
Turning to RLRTTITPEQLEILYEKYLLTSNPTRKMLDHIAREVGLKKRVVQVWFQNTRARERK, the abundance fitness was -0.458 ± 0.061.

As for RLRTTITPEQLEILYEKYLLYSNPTRKMLDHIAREVGLKKRVVQVWFQNTRARERK, the abundance fitness was -0.5 ± 0.063.

Turning to RLRTTITPEQLEILYEKYLLQSNPTRKMLDHIAREVGLKKRVVQVWFQNTRARERK, the abundance fitness was -0.352 ± 0.1.

Turning to RLRTTITPEQLEILYEKYLLFSNPTRKMLDHIAREVGLKKRVVQVWFQNTRARERK, the abundance fitness was -0.302 ± 0.16.

As to RLRTTITPEQLEILYEKYLLASNPTRKMLDHIAREVGLKKRVVQVWFQNTRARERK, the abundance fitness was -0.435 ± 0.085.

For the variant RLRTTITPEQLEILYEKYLLSSNPTRKMLDHIAREVGLKKRVVQVWFQNTRARERK, the abundance fitness is -0.433 ± 0.064.

As for RLRTTITPEQLEILYEKYLLNSNPTRKMLDHIAREVGLKKRVVQVWFQNTRARERK, the abundance fitness was -0.188 ± 0.086.

Regarding RLRTTITPEQLEILYEKYLLCSNPTRKMLDHIAREVGLKKRVVQVWFQNTRARERK, the abundance fitness was -0.378 ± 0.11.

For RLRTTITPEQLEILYEKYLLMSNPTRKMLDHIAREVGLKKRVVQVWFQNTRARERK, the abundance fitness was -0.673 ± 0.21.

Turning to RLRTTITPEQLEILYEKYLLRSNPTRKMLDHIAREVGLKKRVVQVWFQNTRARERK, the abundance fitness was -0.796 ± 0.099.

For the variant RLRTTITPEQLEILYEKYLLGSNPTRKMLDHIAREVGLKKRVVQVWFQNTRARERK, the abundance fitness is -0.433 ± 0.081.

In the case of RLRTTITPEQLEILYEKYLLESNPTRKMLDHIAREVGLKKRVVQVWFQNTRARERK, the abundance fitness is 0.078 ± 0.11.

Consider RLRTTITPEQLEILYEKYLLKSNPTRKMLDHIAREVGLKKRVVQVWFQNTRARERK, for which the abundance fitness was -0.727 ± 0.097.

Regarding RLRTTITPEQLEILYEKYLLVSNPTRKMLDHIAREVGLKKRVVQVWFQNTRARERK, the abundance fitness is -0.465 ± 0.075.

In the case of RLRTTITPEQLEILYEKYLLISNPTRKMLDHIAREVGLKKRVVQVWFQNTRARERK, the abundance fitness was -0.406 ± 0.12.

RLRTTITPEQLEILYEKYLLPSNPTRKMLDHIAREVGLKKRVVQVWFQNTRARERK: the abundance fitness was -0.769 ± 0.3.

Take RLRTTITPEQLEILYEKYLLLSNPTRKMLDHIAREVGLKKRVVQVWFQNTRARERK: the abundance fitness is -0.474 ± 0.057.

RLRTTITPEQLEILYEKYLLWSNPTRKMLDHIAREVGLKKRVVQVWFQNTRARERK: the abundance fitness was -0.505 ± 0.12.

Turning to RLRTTITPEQLEILYEKYLLDSWPTRKMLDHIAREVGLKKRVVQVWFQNTRARERK, the abundance fitness is -0.208 ± 0.11.

In the case of RLRTTITPEQLEILYEKYLLDSIPTRKMLDHIAREVGLKKRVVQVWFQNTRARERK, the abundance fitness is -0.091 ± 0.15.

On to RLRTTITPEQLEILYEKYLLDSDPTRKMLDHIAREVGLKKRVVQVWFQNTRARERK, for which the abundance fitness is -0.039 ± 0.14.

Take RLRTTITPEQLEILYEKYLLDSGPTRKMLDHIAREVGLKKRVVQVWFQNTRARERK: the abundance fitness is -0.121 ± 0.072.

Consider RLRTTITPEQLEILYEKYLLDSKPTRKMLDHIAREVGLKKRVVQVWFQNTRARERK, for which the abundance fitness was -0.054 ± 0.11.

For the variant RLRTTITPEQLEILYEKYLLDSAPTRKMLDHIAREVGLKKRVVQVWFQNTRARERK, the abundance fitness was -0.064 ± 0.068.

Turning to RLRTTITPEQLEILYEKYLLDSLPTRKMLDHIAREVGLKKRVVQVWFQNTRARERK, the abundance fitness was -0.238 ± 0.065.

Take RLRTTITPEQLEILYEKYLLDSTPTRKMLDHIAREVGLKKRVVQVWFQNTRARERK: the abundance fitness was -0.213 ± 0.071.

Consider RLRTTITPEQLEILYEKYLLDSSPTRKMLDHIAREVGLKKRVVQVWFQNTRARERK, for which the abundance fitness is -0.1 ± 0.061.

For the variant RLRTTITPEQLEILYEKYLLDSRPTRKMLDHIAREVGLKKRVVQVWFQNTRARERK, the abundance fitness stood at 0.017 ± 0.057.

For the variant RLRTTITPEQLEILYEKYLLDSPPTRKMLDHIAREVGLKKRVVQVWFQNTRARERK, the abundance fitness is -0.425 ± 0.18.

For the variant RLRTTITPEQLEILYEKYLLDSMPTRKMLDHIAREVGLKKRVVQVWFQNTRARERK, the abundance fitness is -0.105 ± 0.11.

For the variant RLRTTITPEQLEILYEKYLLDSEPTRKMLDHIAREVGLKKRVVQVWFQNTRARERK, the abundance fitness was -0.086 ± 0.11.

For RLRTTITPEQLEILYEKYLLDSVPTRKMLDHIAREVGLKKRVVQVWFQNTRARERK, the abundance fitness was -0.356 ± 0.09.

Take RLRTTITPEQLEILYEKYLLDSFPTRKMLDHIAREVGLKKRVVQVWFQNTRARERK: the abundance fitness worked out at 0.301 ± 0.15.

Regarding RLRTTITPEQLEILYEKYLLDSCPTRKMLDHIAREVGLKKRVVQVWFQNTRARERK, the abundance fitness was -0.738 ± 0.2.

As for RLRTTITPEQLEILYEKYLLDSQPTRKMLDHIAREVGLKKRVVQVWFQNTRARERK, the abundance fitness was 0.013 ± 0.063.

With RLRTTITPEQLEILYEKYLLDSHPTRKMLDHIAREVGLKKRVVQVWFQNTRARERK, the abundance fitness was -0.302 ± 0.27.

Turning to RLRTTITPEQLEILYEKYLLDSYPTRKMLDHIAREVGLKKRVVQVWFQNTRARERK, the abundance fitness was -0.062 ± 0.12.

On to RLRTTITPEQLEILYEKYLLDSNETRKMLDHIAREVGLKKRVVQVWFQNTRARERK, for which the abundance fitness is -0.976 ± 0.13.

Regarding RLRTTITPEQLEILYEKYLLDSNFTRKMLDHIAREVGLKKRVVQVWFQNTRARERK, the abundance fitness is -0.503 ± 0.18.

With RLRTTITPEQLEILYEKYLLDSNCTRKMLDHIAREVGLKKRVVQVWFQNTRARERK, the abundance fitness was -0.777 ± 0.077.

As for RLRTTITPEQLEILYEKYLLDSNHTRKMLDHIAREVGLKKRVVQVWFQNTRARERK, the abundance fitness was -0.847 ± 0.2.

On to RLRTTITPEQLEILYEKYLLDSNGTRKMLDHIAREVGLKKRVVQVWFQNTRARERK, for which the abundance fitness is -0.852 ± 0.099.

As for RLRTTITPEQLEILYEKYLLDSNATRKMLDHIAREVGLKKRVVQVWFQNTRARERK, the abundance fitness was -0.861 ± 0.15.

Regarding RLRTTITPEQLEILYEKYLLDSNITRKMLDHIAREVGLKKRVVQVWFQNTRARERK, the abundance fitness is -0.415 ± 0.22.

Regarding RLRTTITPEQLEILYEKYLLDSNDTRKMLDHIAREVGLKKRVVQVWFQNTRARERK, the abundance fitness is -0.679 ± 0.064.

In the case of RLRTTITPEQLEILYEKYYLDSNPTRKMLDHIAREVGLKKRVVQVWFQNTRARERK, the abundance fitness was -0.153 ± 0.15.

For RLRTTITPEQLEILYEKYPLDSNPTRKMLDHIAREVGLKKRVVQVWFQNTRARERK, the abundance fitness was -0.897 ± 0.29.

Source of the values: the Human Domainome abundance scans (Beltran et al. 2025).
